Assay results: the nanobody polyreactivity screen of Harvey et al. (2022)

Assay: yeast display, Sf9 membrane polyspecificity reagent, FACS + sequencing; frameworks hold sequencing errors
Summary of the method: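 Sorting gates, low and high (top ~1%), were placed on anti-HA fluorescence to track expression and on streptavidin fluorescence to track reagent binding. A clone's polyreactivity label is taken from the gate it came out of. The reagent was 10% biotinylated, detergent-solubilized Sf9 membrane, applied for 1 hour at 4 °C to galactose-induced yeast display cells.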

| Sequence | polyreactivity (PSR sort gate) |
| --- | --- |
| QVQLVESGGGLVQAGGSLRLSCAASGSNFHPNAMGSCRQAPGKERELVAAITKSGGSTYYADSVKGRFTISRDNAKNTVYLQMNSRKPEDTAVYYCNALRYRRVGTLGYDYWGQATQVTVSS | high polyreactivity |
| QVQLVESGGGLVQAGGSLRLSCAASGSNFKSNAMGLYRPAPGKERELVAAINRSGAGTYYADSVKGRFTISRDNAKNTVYLQMNSLKPEDTAVYYCAAQSYSRRYDYWGQGTQVTVSS | high polyreactivity |
| QVQLVESGGGLVQAGGSLRLSCAASGSNFLTYAMGRYRQAPGKEREFVAAISTSGVSTYYADSVKGRFTISRDNAKNTVYLQMNSLKPEDTAVYFCAAVYDLGYYGPIWAIVLDDYWGQGTQVTVSS | low polyreactivity |
| QVQLVESGGGLVQAGGSLRLSCAASGSNFNYYTMGWYRQAPGKERELVAAITDSGGSTYYADSVMGRFTISRDNAKNTVYLQMNSLIPEDTAVYYCAAAVPELYEVRYHADYWGQGTQVTVST | low polyreactivity |
| QVQLVESGGGLVQAGGSLRLSCAASGSNFPSYAMGWYTKAPGEEMEFVARISRGDDSTYYADSVKGRFTISRDNAKNTVYLQMNSLKPEDTAVYYCAADYPDVVYLEYDYWGQGTQVTVSS | low polyreactivity |
| QVQLVESGGGLVQAGGSLRLSCAASGSNFPYNAMGWYRQAPGKERELVAAITGRGGSTYYADSVKGRFTISRDNAKNTVYLHMNSLKPEDTAVYYCAAVTRNQGYYRYYYWGQGTQVTVSS | high polyreactivity |
| QVQLVESGGGLVQAGGSLRLSCAASGSNFRGNAMAWYRQAPGKERELVAAITYNDGGTYYADSVKGRFTISRDNAMNTVYLQMNLLKPEDTAVYYCAAVGTGNKSILYDYWGQGTQVTVSS | low polyreactivity |
| QVQLVESGGGLVQAGGSLRLSCAASGSNFRPYAMGWYRQAPGKERELVAAISSSGGSTYYADSVKGRFTISGDNAKHTVYLQMNSLKPEDTAVYYCAKDGVSFYWLNKYYYWGQGTQVTVSS | low polyreactivity |
| QVQLVESGGGLVQAGGSLRLSCAASGSNFRYYALGWYRQAPGKERELVAGNTGSTGRTYYADSVKGRFTISRDNAKNTVYLQMNRLKPEDTAVYYCATGIYRARTSSFRMGYWGQGTHVTVSS | low polyreactivity |
| QVQLVESGGGLVQAGGSLRLSCAASGSNFRYYAMGWYSPAPGKERELVAAISQSGGSTYSADSVKGRFTISRDNAKTTVYLQMNSLKPEDTAVYYCAARRVDTRGHVRYRYYYWGQGTQVTVSS | high polyreactivity |
| QVQLVESGGGLVQAGGSLRLSCAASGSNFSFNGLGWYRQAPGKERGLVAAITTSGGSTYYADSVKGRFTISRDNAKNTVYLQMNSLTPEDTAVYYCAAVGPDNSLYEPMDYWGLGTQVTVSS | low polyreactivity |
| QVQLVESGGGLVQAGGSLRLSCAASGSNFSSNAMGWYRQAPGKERELVAAISRSGVTTYYADSVKGRFTISRDNAKNTVYLQMNSLKPEDTAVYYCAGQPYSRLYGRYRGFQYKYVYWGHGTQVTVSS | low polyreactivity |
| QVQLVESGGGLVQAGGSLRLSCAASGSNFTNYAMGWYRPAPGKERELVARITSSGSRTYYADSVKGRFTISRDNAKNTVYLQMNSLKPEDTAVYYCNAETYYLRYGRGYRRFDYWGQGTQVTVSS | high polyreactivity |
| QVQLVESGGGLVQAGGSLRLSCAASGSNFVNNAMGWYRQAPGKERELVASITWSGGRTYYADSVKGRFTISRDNAKNTVDLQMNSLKPEDTAVYYCNKRQYSRTFRYGYWGQGTEVTVSS | high polyreactivity |
| QVQLVESGGGLVQAGGSLRLSCAASGSNFVRNTMGWYRQAPGKESELVATISSGGRTNYADSVKGRFTISRDNAKNTVYLQLNSLKPEDTAVYYCNRPRWYGGSPYYYWGQGTQVTVSS | high polyreactivity |
| QVQLVESGGGLVQAGGSLRLSCAASGSNFYFYAMGWYRHAPGKERELVAGITSGGITYYADSVKGRFTISRDNAKNTVYLQLNSLKPEDTAVYYCAADFTRRWSKSTPFDSWGQGTQVTVSS | high polyreactivity |
| QVQLVESGGGLVQAGGSLRLSCAASGSNFYLYAMGWYRQAPGKERELVAAITSIGGSTYADSVKGRFTISRDNAKNTVYLQMNSLKPEDTAVYYCNTDEYPLTVQVQYYYWGQGTQVTVSS | low polyreactivity |
| QVQLVESGGGLVQAGGSLRLSCAASGSNIDGYAMGRYRQAPGKEREFLAAISFSSASTYYADSVKGRFTISRDNAKNSVYLQMNSLKPEDTAVYYCNADFFESGGSIEYDSSGQGTQVTVSS | low polyreactivity |
| QVQLVESGGGLVQAGGSLRLSCAASGSNIRSNAMGWYRQAPGKERELVAAISRTGGRTYYADSVKGRFTISRDNEKNTVYLQMKSLKPEYTAVYYCAASSSGSGGYWGQCTQVTVSS | high polyreactivity |
| QVQLVESGGGLVQAGGSLRLSCAASGSNLVWNAMGWYRQAPGKERELVAAIDRDTTTYYADSVKGRFTISRDNAKNTVYLQMNSLKPEDTAVYYCAAESWYYLYDYWGQGTQVTVSS | high polyreactivity |
| QVQLVESGGGLVQAGGSLRLSCAASGSNLYKYAMGWYRPAPGKERELVASITWSDGNTNYADSVKGRFTISRHNAKNTVYLQMNSLKPEDTAVYYCAADWRYILRGDDYWGQGTQVTVSS | low polyreactivity |
